Earlier results, collected in paper PMC7072864.

Biological target: EAG1 CNBHD CNBHD (Mus musculus) (UniProt Q60603)

Kd: 13 µM
Substance: EAG1 PAS domain PAS (from UniProt Q60603)
